± gives the uncertainty stated by the source.
Assay: protein stability index of a GFP-peptide fusion (yeast GPS) (PSI 1-4); higher = more stable; sorted into four equal gates, so the index is relative within each strain
Method in brief: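 Tiled 17-residue yeast protein peptides were fused downstream of GFP in a plasmid that also expresses Cherry, and the pooled library was carried in yeast. Mid-log cultures in leucine-free medium were sorted into four equal gates by GFP/Cherry fluorescence ratio, and plasmids from each gate were PCR-amplified and Illumina-sequenced, with reads assigned to strains by barcodes. The protein stability index for each peptide was each gate's read frequency times its gate number, summed.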

Sequence	protein stability index (doa10∆)	protein stability index (pdr5∆)	protein stability index (san1∆)	protein stability index (ubr1∆)
DVCKTRFNHLVTRLFFI [YML031W/NDC1]	1.79 ± 0.046	1.53 ± 0.039	1.52 ± 0.072	1.77 ± 0.034
QQREAVRQLYKGKKYQP [RPL35A]	3.63 ± 0.29	3.42 ± 0.14	2.94 ± 0.14	2.83 ± 0.091
FYVPQARNVTFDSLRNF [GRR1]	2.04 ± 0.08	2.27 ± 0.075	2.52 ± 0.08	2.22 ± 0.059
SNGPRAAKKRRPAAKGK [RRP6]	2.97 ± 0.12	3.2 ± 0.11	3.12 ± 0.08	3.17 ± 0.085
KPFGSAKSDETKQASSF [YLR335W/NUP2]	–	2.09 ± 0.12	1.92 ± 0.15	1.06 ± 0.13
NDTLPDEISPELLSKYK [SNU114]	2.9 ± 0.067	2.8 ± 0.072	3.03 ± 0.064	2.86 ± 0.075
GKLAKPRQLHNTHWGLV [RPB2]	2.85 ± 0.082	2.84 ± 0.071	2.61 ± 0.068	2.94 ± 0.092
FGWLLSDNSVSVRLQVT [IRR1]	1.26 ± 0.078	1.32 ± 0.095	1.19 ± 0.23	1.13 ± 0.13
IGVIAGGGRVDKPLLKA [RPL2A]	3.2 ± 0.088	3.16 ± 0.09	3.05 ± 0.11	2.98 ± 0.066
QSRLFINELVLENFKSY [SMC4]	1.75 ± 0.053	2.34 ± 0.049	1.94 ± 0.078	2.27 ± 0.042
PKILIREHERVILKQIL [SWP82]	1.84 ± 0.081	2.18 ± 0.092	3.18 ± 0.24	3.15 ± 0.12
KLILHAIHIFESYYNWK [YML103C/NUP188]	1.57 ± 0.082	1.45 ± 0.07	1.58 ± 0.081	1.82 ± 0.056
ITSLYALIRRDFTLIPR [CDC53]	2.95 ± 0.08	1.28 ± 0.071	1.18 ± 0.15	1.41 ± 0.031
IERYPSKVTKKHGAKKV [RPL27B]	3.26 ± 0.074	3.49 ± 0.095	3.43 ± 0.061	3.31 ± 0.059
ELFKGYLADDIDADSLE [RPL5]	3.02 ± 0.086	3.21 ± 0.076	3.23 ± 0.064	3.17 ± 0.087
PSTRCKLKLLRMERIKD [RPT2]	1.6 ± 0.045	1.68 ± 0.056	1.88 ± 0.089	1.76 ± 0.064
LHDEYLVSMRYPEDKKT [RPN3]	2.81 ± 0.26	–	–	–
EKKILNQFLKIKKKRKE [SMC1]	2.98 ± 0.12	3.06 ± 0.12	2.89 ± 0.1	3.33 ± 0.15
KILITYGSSPKLLATST [SRB8]	1.22 ± 0.039	1.33 ± 0.039	1.48 ± 0.091	1.53 ± 0.042
ETISNVAKTAPNSNKTH [SNF2]	2.96 ± 0.055	3 ± 0.061	2.96 ± 0.035	3.07 ± 0.045

Sequence	protein stability index (doa10∆)	protein stability index (pdr5∆)	protein stability index (san1∆)	protein stability index (ubr1∆)
KKNLGRLTRLWIKNEQE [PRP8]	1.72 ± 0.063	1.89 ± 0.063	1.25 ± 0.19	2.5 ± 0.25
SKDIETLKKEWLKEYED [YIL149C/MLP2]	3.34 ± 0.093	3.16 ± 0.085	3.26 ± 0.053	3.15 ± 0.051
KKMMNTSDSESTLYKYL [SWI3]	2.94 ± 0.079	2.87 ± 0.075	2.79 ± 0.083	2.75 ± 0.05
VQDKDTLSNAERAKNVN [GAL11]	–	2.71 ± 0.23	2.71 ± 0.18	2.91 ± 0.12
VTNIRRIIQDNISPRLV [RRP46]	2.3 ± 0.09	2.63 ± 0.1	–	2.23 ± 0.074
EYTINLHKRLHGVSFKK [RPL31A]	2.24 ± 0.093	2.19 ± 0.088	2.14 ± 0.11	1.61 ± 0.061
EPKKDKESIVLPTVGFD [YOR098C/NUP1]	2.43 ± 0.18	3.43 ± 0.19	3.11 ± 0.16	2.92 ± 0.07
KIAYRGVKDCQEGLITT [SSN2]	2.08 ± 0.23	–	2.91 ± 0.22	2.7 ± 0.22
FEQCCKEKKELQMRLKE [YIL149C/MLP2]	–	3.11 ± 0.29	–	–
ANVNASAMPAPYMPYYY [DSN1]	2.76 ± 0.06	2.88 ± 0.077	2.79 ± 0.059	2.65 ± 0.055
VGSVTYQVDEDVKSSLS [YJL039C/NUP192]	3.26 ± 0.15	3.2 ± 0.13	3.29 ± 0.062	3.48 ± 0.1
YHQLLSDIESLEALMDI [SRB8]	2.9 ± 0.13	2.84 ± 0.19	–	2.25 ± 0.2
WRLLFIDKFIMVVQKYK [GRR1]	2.07 ± 0.054	1.79 ± 0.052	1.66 ± 0.083	2.38 ± 0.043
DPPKGILLYGPPGTGKT [RPT1]	2.94 ± 0.28	2.71 ± 0.28	–	3.23 ± 0.17
IKEFVDDLKKDHIAIDW [DSN1]	2.56 ± 0.08	2.96 ± 0.075	2.73 ± 0.076	2.75 ± 0.059
LIAEETNNKKLLEKANN [SMC3]	2.41 ± 0.055	2.68 ± 0.075	2.38 ± 0.073	3.32 ± 0.063
LPLQPIEIDYTVRVDKA [SNF12]	2.39 ± 0.061	2.19 ± 0.055	2.08 ± 0.064	2.27 ± 0.045
DDYILSGESVMDRDSES [SRB4]	3.45 ± 0.19	3.6 ± 0.12	3.34 ± 0.15	3.21 ± 0.13
HPFIPLLKEKPNALKPL [RRP6]	2.54 ± 0.065	2.7 ± 0.067	2.94 ± 0.076	2.71 ± 0.053

Source: the supplement of paper PMC9732359
